Where a chain is given by its changes, count along the chain named. In names and notes the source's numbering stands.
Assays:
lung tissues = experiment: CD68 and CD163 immunostaining and immunoblot of lung tissues of injected mice; format: in vivo; conditions: for protein expression of CD68 and CD163, immunoblot: lung tissue lysates
Protocol: Additionally, the increase of macrophages around the tumor was examined by immunoblot using lung tissue lysates. […] Through the results of this study, it could be observed that the non-phosphorylated point mutant had the effect of inhibiting polarization into tumor-associated macrophages.
Furthermore, CD68, a marker for a broad range of macrophages, and CD163, a marker for tumor-associated macrophages, were analyzed in lung tissues of mice using immunostaining. It was determined that the expression of both CD68 and CD163 markers was increased in the lung tissues of mice injected with the FoxM1 WT protein over-expressed cells (FIG. 13D). Through the present results, it could be observed that there was an effect of promoting the polarization of M2 tumor-associated macrophages in lung cancer cells expressing the FoxM1 WT protein.

A549 cells = experiment: Caspase-3 assay in A549 cells over-expressing FoxM1 point mutants; format: cell-based; conditions: doxycycline 3 μg/ml 48 hours, control set to 1
Protocol: Furthermore, to observe the degree of apoptosis of cancer cells in A549 cells expressing each of the phosphorylation and non-phosphorylated point mutants of FoxM1, a caspase-3 assay was performed to measure the activity of the caspase-3 enzyme (FIG. 5F). A549 cells expressing each protein containing the phosphorylation and non-phosphorylation point mutation of FoxM1 were administered with 3 μg/ml of doxycycline for 48 hours to induce over-expression of each mutant. The cells were lysed and reacted with the fluorescence substrate of caspase-3 (Ac-DEVD-AMC) for 1 hour, and then the fluorescence value (Ex. 380 nm/Emi. 430 nm) was measured using an electron spectrometer (SpectraMax M4 system). The measured fluorescence value indicated the activity of caspase-3, and the relative measurement value in each experimental group was calculated and depicted by a graph, when the measured fluorescence value of the control group set to 1.

Jurkat cells = experiment: CD25 and CD29 expression (qRT-PCR) in Jurkat cells co-cultured with A549 cells; format: cell-based; conditions: co-culture 48 h
Protocol: To investigate the polarization into tumor-infiltrating T lymphocytes (TILs) by A549^S25E cells, the expression levels of CD25 and CD29, which were expressed in TILs, were analyzed by qRT-PCR after co-culturing Jurkat cells (1.2×10^5 cells) and A549^S25E cells (4×10^4 cells) for 48 h. As a result, it was observed that there was a significant increase of 3 folds or more, in the expression of CD25 and CD29 in Jurkat cells co-cultured with A549^S25E cells. […] Additionally, to investigate the inhibitory effect of A549^S25A cells on tumor immune evasion by TAMs or TILs in the tumor microenvironment, the viability change was examined by an MTT assay analysis after co-culturing A549 cells expressing the FoxM1 phosphorylation or non-phosphorylated point mutant, THP-1 cells, and Jurkat cells at a ratio of 1:0:0, 1:6:0, 1:0:6, and 1:6:6 for 48 h. […] That is, there was the inhibitory effect of the cells expressing non-phosphorylated point mutant on the tumor immune evasion by TAMs or TILs in the tumor microenvironment. Therefore, the present invention provided the inhibitory effects of the non-phosphorylated point mutant of FoxM1 on tumor immune evasion.

A549 lung cancer cells [1] = experiment: Transwell migration assay of A549 cells expressing FoxM1 WT or point mutants; format: cell-based; conditions: for migration / motility of cancer cells (in words): Transwell migration assay, A549
Protocol: To examine the effects of FoxM1 WT, phosphorylation, and non-phosphorylated point mutants on the motility of cancer cells, the migration assay was performed in A549 lung cancer cells expressing mutant proteins.
Specifically, 5×10^4 cells of lung cancer cells A549 expressing each of WT, phosphorylation, and non-phosphorylated point mutant of FoxM1 were seeded in an 8.0 μm, 24 well insert, and the inserts were placed in a 24-well plate after medium with 10% fetal bovine serum (FBS) was dispensed in the 24-well plate. For the positive control, 0.5 ml of RPMI1640 (10% FBS) containing 5 ng/ml of TGF-β was used. After 72 hours from cell seeding, 500 μl of 4% paraformaldehyde was dispensed, washed three times with 1×PBS, and stained with 0.05% crystal violet solution for 5 minutes. After 5 minutes, the cells were washed five times with 1×PBS, and the staining intensity was measured using the Odyssey infrared imaging system.
Specifically, 5×10^4 cells of lung cancer cells A549 expressing control and FoxM1 WT were seeded in an 8.0 μm, 24 well insert, and the inserts were placed in a 24-well plate after medium with 10% fetal bovine serum (FBS) was dispensed in the 24-well plate. For the positive control, 0.5 ml of RPMI1640 (10% FBS) containing 5 ng/ml of TGF-β was added and used. After 72 hours from cell seeding, 500 μl of 4% paraformaldehyde was dispensed, washed three times with 1×PBS, and stained with 0.05% crystal violet solution for 5 minutes. After 5 minutes, the cells were washed five times with 1×PBS, and the staining intensity was measured using the Odyssey infrared imaging system.

A549 lung cancer cells [2] = experiment: EMT marker expression (immunoblot, real-time PCR) in A549 cells expressing FoxM1 WT or mutants; format: cell-based; conditions: A549 cells expressing the mutant
Source text: To establish a stabilized cell line expressing WT, phosphorylation, and non-phosphorylated point mutants of FoxM1 in lung cancer cells, A549 cells were first infected with pLVX-Tet3G expressing lentivirus, and the infected cells were selected by treating with G418 for 5 days. The selected A549Tet3G cells were infected with lentiviruses expressing WT and phosphorylated point mutants (S25E, S361E, S715E) and non-phosphorylated point mutants (S25A, S361A, S715A) of FoxM1, and then treated with puromycin for 48 hours to establish a stabilized cell line. The established cells were treated with 2 μg/ml of doxycycline to induce expression of WT, phosphorylation, and non-phosphorylated point mutants of FoxM1, and the mRNA and protein expression levels of each FoxM1 point mutant were determined to confirm whether they were well expressed. As shown in FIG. 4A and FIG. 4B, it was confirmed that the WT and each point mutant form of FoxM1 were well expressed through mRNA and protein expression levels. It was observed that the expression levels of N-cadherin and vimentin were higher, and the expression levels of E-cadherin were lower in lung cancer cells expressing the phosphorylated form of FoxM1, specifically, phosphorylated at the phosphorylation site S25, compared to the cells expressing the non-phosphorylated form of FoxM1. In addition, when it was examined whether the expression of these phosphorylation and non-phosphorylated point mutants of FoxM1 affected cell proliferation, it was observed that it had no significant effect on cell proliferation (FIG. 4C).
To establish a stabilized cell line expressing FoxM1 WT in A549 lung cancer cells, first, pLVX-Tet3G expressing lentivirus was infected into cells, and the infected cells were selected by treating 500 μg/ml of G418 for 5 days. The selected A549^Tet3G cells were infected with lentiviruses expressing FoxM1 WT or Mock, and the stabilized cell lines were established by treating with 2 μg/ml of puromycin for 48 hours. After inducing the expression of FoxM1 WT by treating the established cells with 2 μg/ml of doxycycline, the protein expression was observed by immunoblot.

B1: S25E: FoxM1 phosphorylated point mutant of the S25 residue, expressed by lentivirus in A549 cells (protein, listed as Homo sapiens)
chain: MKTSPRRPLILKRRRLPLPVQNAPEETSEEEPKRSPAQQESNQAEASKEVAESNSCKFPAGIKIINHPTMPNTQVVAIPNNANIHSIITALTAKGKESGSSGPNKFILISCGGAPTQPPGLRPQTQTSYDAKRTEVTLETLGPKPAARDVNLPRPPGALCEQKRETCDGEAAGCTINNSLSNIQWLRKMSSDGLGSRSIKQEMEEKENCHLEQRQVKVEEPSRPSASWQNSVSERPPYSYMAMIQFAINSTERKRMTLKDIYTWIEDHFPYFKHIAKPGWKNSIRHNLSLHDMFVRETSANGKVSFWTIHPSANRYLTLDQVFKQQQKRPNPELRRNMTIKTELPLGARRKMKPLLPRVSSYLVPIQFPVNQSLVLQPSVKVPLPLAASLMSSELARHSKRVRIAPKVLLAEEGIAPLSSAGPGKEEKLLFGEGFSPLLPVQTIKEEEIQPGEEMPHLARPIKVESPPLEEWPSPAPSFKEESSHSWEDSSQSPTPRPKKSYSGLRSPTRCVSEMLVIQHRERRERSRSRRKQHLLPPCVDEPELLFSEGPSTSRWAAELPFPADSSDPASQLSYSQEVGGPFKTPIKETLPISSTPSKSVLPRTPESWRLTPPAKVGGLDFSPVQTSQGASDPLPDPLGLMDLSTTPLQSAPPLESPQRLLSSEPLDLISVPFGNSSPSDIDVPKPGSPEPQVSGLAANRSLTEGLVLDTMNDSLSKILLDISFPGLDEDPLGPDNINWSQFIPELQ
protein expression of CD68 and CD163, immunoblot (lung tissues): significantly higher
expression of CD68 and CD163 markers, immunostaining (lung tissues; lung tissues of injected mice): approximately 3 times
activity of caspase-3 (apoptosis) (A549 cells): lowest activity of caspase-3
expression of CD25 and CD29 in Jurkat cells (Jurkat cells): ≥ 3 folds
migration / motility of cancer cells (in words) (A549 lung cancer cells [1]): promoted the motility of lung cancer cells
cancer cell migration (stained intensity), increase compared to the control group (A549 lung cancer cells [1]; Transwell, 72 hours, control set to 1, TGF-β 5 ng/ml positive control): approximately 6 fold
staining intensity value compared to the control group (A549 lung cancer cells [1]; migration assay, 72 hours, control set to 1): up to 6 times
expression of N-cadherin (CDH2), qRT-PCR and Western blot (A549 lung cancer cells [2]): increased

B2: S25A: FoxM1 protein with Ser25 substituted with alanine, non-phosphorylated point mutant, expressed by lentivirus in A549 cells (protein)
chain: B1 chain with E25A
modifications: left off: a dimerising Fc or GST
notes: FoxM1 protein with Ser25 substituted with alanine, non-phosphorylated point mutant, expressed by lentivirus in A549 cells
protein expression of CD68 and CD163, immunoblot (lung tissues): lower
expression of CD68 and CD163 markers, immunostaining (in words) (lung tissues; lung tissues of injected mice): significantly low
activity of caspase-3 (apoptosis) (A549 cells): highest activity of caspase-3
expression of CD25 and CD29 in Jurkat cells (in words) (Jurkat cells): significantly inhibiting effect
migration / motility of cancer cells (in words) (A549 lung cancer cells [1]): reduced
migration / motility of cancer cells (in words) (A549 lung cancer cells [1]; listed as S25 non-phosphorylated point mutant of FoxM1): effectively suppressed the motility of lung cancer cells
expression of N-cadherin (CDH2), qRT-PCR and Western blot (A549 lung cancer cells [2]): reduced and inhibited
